Literature values in PMC9265785.

Target: Pex5 (Saccharomyces cerevisiae) (UniProt P35056)
Sequence of UniProt P35056 (P35056 whole entry): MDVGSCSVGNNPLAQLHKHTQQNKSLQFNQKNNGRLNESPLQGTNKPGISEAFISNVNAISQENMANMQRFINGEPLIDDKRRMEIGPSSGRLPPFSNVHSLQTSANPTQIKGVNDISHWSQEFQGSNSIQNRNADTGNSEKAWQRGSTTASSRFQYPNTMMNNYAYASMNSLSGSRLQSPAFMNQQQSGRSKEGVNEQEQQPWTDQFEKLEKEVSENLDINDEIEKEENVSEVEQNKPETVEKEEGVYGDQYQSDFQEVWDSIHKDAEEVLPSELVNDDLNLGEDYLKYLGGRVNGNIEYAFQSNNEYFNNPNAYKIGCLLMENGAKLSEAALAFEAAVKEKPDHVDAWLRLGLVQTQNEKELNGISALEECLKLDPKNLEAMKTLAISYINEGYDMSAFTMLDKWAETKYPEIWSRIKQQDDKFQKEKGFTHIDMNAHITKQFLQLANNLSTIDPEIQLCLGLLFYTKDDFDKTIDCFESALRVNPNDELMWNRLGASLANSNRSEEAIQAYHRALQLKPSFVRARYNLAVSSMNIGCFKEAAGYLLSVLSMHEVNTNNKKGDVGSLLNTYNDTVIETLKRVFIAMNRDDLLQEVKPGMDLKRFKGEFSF

- Kd: 1 µM
Substance: Pex1 (from UniProt P24004)
